Measured values as given in patent US12661385B2, “Modulation of mTORCI activity and autophagy via CIB2-RHEB interaction” (University of Maryland, Baltimore, priority 2018, dated 2026).

Legend:
Rheb = assay: Co-IP of tdTomato-CIB2 with HA-GST-Rheb and Rheb variants; format: binding; conditions: co-IP assay
Procedure: (§1) FIG. 3. […] Note the stronger interaction between CIB2 and Rheb S20N variant as compared to Q64L variant (GDP vs GTP mimetic, respectively). c, CIB2 preferentially interacts with GDP-loaded Rheb is further confirmed by co-IP experiments of HA-GST-Rheb immobilized on […] and loaded with either GDP or GTPγS, followed by incubation with tdTomato-CIB2 lysate. d, Proposed model of CIB2 function in retinal sensory cells. […] Loss of CIB2 results in reduced autophagy and exacerbated mTORC1 signaling, thus leading to RPE pathology and secondary PR dysfunction. e, f Immunoblots from RPE/choroid lysates from dry AMD or control age-matched donors indicate reduced CIB2 expression, overactive mTORC1 and reduced autophagy, quantified in panel f. Unpaired two-tailed 1 test was used to determine statistical significance. p value of <0.05 (*), <0.01 (**), and <0.001 (***). Please note that one control sample (ψ) is outliner and is highly variant from the rest, Re-quantification, omitting the highly variant control sample, is shown in FIG. 15. g.
We tested the essentiality of nucleotide binding state of Rheb using co-IP assays. […] Next, we used the Q64L and […] Rheb variants, which mimic the GTP- and GDP-bound state, respectively. […]

mTORC1 [1] = assay: Phosphoprotein immunoblots of LAM-621 cells overexpressing CIB2, mTORC1 targets; format: cell-based, human; conditions: LAM-621 cells overexpressing increasing amounts of CIB2
mTORC1 [2] = assay: Phosphoprotein immunoblots of HEK293 cells overexpressing increasing amounts of CIB2, mTORC1 targets; format: cell-based
Procedure: as §1
(§2) mTORC1 integrates various metabolic and amino acid signals through its nutrient-sensing arm and growth signals, which converge on the small GTPase Rheb, via the TSC complex (Wolfson et al., Cell Metabolism 26, 301-309 (2017)). We first tested if CIB2 is a specific negative regulator of mTORC1 and/or mTORC2. We used HEK293 cells, because the mTORC1 signaling pathway is well-established in this cell line, and to expand CIB2 functions beyond the RPE.
80% confluent HEK293 cells in 10-cm dishes were transfected for co-IP experiments with 10 μg of indicated plasmid/s using the polyethylenimine (PEI) method (3:1::PEI:DNA). 2 plates per condition were used. 36 hr later the plates were chilled on ice, washed once with ice-cold PBS, and cells collected in ice-cold PBS and centrifuged for 2 min at 1500 RPM at 4° C. Cell pellet was then lysed in IP buffer (0.3% CHAPS, 40 mM HEPES, 2.5 mM MgCl2, 1× Protease inhibitors, 1 mM Na orthovanadate, 10 mM Na glycerophosphate, 10 mM NaF) on ice for 20 min, followed by centrifuging at full speed for 20 min at 4° C. […]

GDP-bound Rheb = biological target: T1, GDP-bound Rheb (Homo sapiens, UniProt Q15382); assay: Co-IP with bead-immobilized HA-GST-Rheb loaded with GDP or GTPγS; format: binding; conditions: glutathione bead-immobilized HA-GST-Rheb (WT) loaded with GDP or non-cleavable GTPγS, tdTomato-CIB2 lysate added
T1 construct: host or cells: HEK293
Procedure: as §1
We tested the essentiality of nucleotide binding state of Rheb using co-IP assays. […] Next, we used the Q64L and S20L Rheb variants, which mimic the GTP- and GDP-bound state, respectively.
For GTPγS of GDP loading experiments, cleared lysates of HEK293 cells over-expressing HA-GST-Rheb were prepared as described in buffer lacking MgCl2. […]

mTORC2 = assay: Phosphoprotein immunoblots of HEK293 cells overexpressing increasing amounts of CIB2, mTORC2 target; format: cell-based
Procedure: as §1
as §2, with “We used HEK293 cells, because the mTORC1 signaling pathway is well-established in this cell line, and to expand CIB2 functions beyond the RPE.” left out

T1 sequence (Q15382 whole entry): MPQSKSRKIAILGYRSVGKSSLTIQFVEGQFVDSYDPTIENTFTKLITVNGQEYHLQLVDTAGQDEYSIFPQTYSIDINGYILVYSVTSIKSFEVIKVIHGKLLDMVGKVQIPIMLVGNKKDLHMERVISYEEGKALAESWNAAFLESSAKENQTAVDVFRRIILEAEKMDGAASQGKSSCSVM

Binding preference among Rheb-WT, Q64L (GTP mimetic) and S20L (GDP mimetic) variants (Rheb): bound preferentially to the S20L variant
B1: CIB2: calcium and integrin binding protein 2, over-expressed in cells from plasmid constructs; SEQ ID NO:1 (human), SEQ ID NO:2 (mouse) (protein)
chain: MGNKQTIFTEEQLDNYQDCTFFNKKDILKLHARFYELAPNLVPMDYRKSPIVHVPMSLIIQMPELRENPFKERIVEAFSEDGEGNLTFNDFVDMFSVLCESAPRELKANYAFKIYDFNTDNFICKEDLEMTLARLTKSELEEDEVVLVCDKVIEEADLDGDGKLGFADFEDMIAKAPDFLSTFHIRI
modifications: left off: large carriers
Phosphorylated 4E-BP-1 (mTORC1 [1]): decreasing amounts
Phosphorylated ULK1 (mTORC1 [1]): decreasing amounts
Phosphorylation of 4E-BP1 (mTORC1 [2]): decreasing phosphorylation
Phosphorylation of S6K1 (mTORC1 [2]): decreasing phosphorylation
Phosphorylation of ULK1 (mTORC1 [2]): decreasing phosphorylation
Binding to GDP-bound vs GTP-bound Rheb (GDP-bound Rheb): binds more strongly to GDP-bound Rheb than to GTP-bound Rheb
mTORC2-mediated phosphorylation of AKT (mTORC2): no changes
